T1: human IL-11Rα on transfected cells (human, UniProt Q14626 23-422)
T1 sequence: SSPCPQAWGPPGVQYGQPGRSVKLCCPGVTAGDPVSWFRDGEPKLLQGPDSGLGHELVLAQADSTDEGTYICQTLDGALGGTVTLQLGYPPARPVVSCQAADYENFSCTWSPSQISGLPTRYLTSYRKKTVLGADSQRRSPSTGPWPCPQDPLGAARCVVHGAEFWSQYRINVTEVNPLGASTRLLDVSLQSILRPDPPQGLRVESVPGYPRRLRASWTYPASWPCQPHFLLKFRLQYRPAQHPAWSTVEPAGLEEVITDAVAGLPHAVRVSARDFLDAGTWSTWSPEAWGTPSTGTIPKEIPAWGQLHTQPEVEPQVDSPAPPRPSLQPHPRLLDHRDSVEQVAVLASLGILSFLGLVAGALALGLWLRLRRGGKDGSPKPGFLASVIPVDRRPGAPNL

T2: human IL-11Rα (form used in the assay not stated) (human, UniProt Q14626 23-363, limits assumed)
T2 construct: also called hIL-11R; hIL-11Rα
T2 sequence: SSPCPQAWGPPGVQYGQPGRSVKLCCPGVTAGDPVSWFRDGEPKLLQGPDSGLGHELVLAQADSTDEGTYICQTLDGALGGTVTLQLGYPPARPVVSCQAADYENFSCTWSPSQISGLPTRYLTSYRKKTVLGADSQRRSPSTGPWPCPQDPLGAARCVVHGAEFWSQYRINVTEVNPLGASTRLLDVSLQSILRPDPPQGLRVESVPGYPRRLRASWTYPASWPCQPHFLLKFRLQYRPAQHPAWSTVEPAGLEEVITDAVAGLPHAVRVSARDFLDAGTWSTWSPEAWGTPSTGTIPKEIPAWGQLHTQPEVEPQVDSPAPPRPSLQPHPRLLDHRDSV


Assays:
[1] = target: T1, human IL-11Rα on transfected cells; assay: cell-based or functional assay
[2] = target: T2, human IL-11Rα (form used in the assay …); assay: Biacore, pH 8.5, 37°C

| Binder | Fold increase in potency relative to 8E2 [1] [fold] | IC50 [1] [µg/mL] | Kd [2] [nM] |
| --- | --- | --- | --- |
| hu8E2-TS-135 (antibody, V domains shown) VH: EVQLLESGGGLVQPGGSLRLSCAASGFTFSWYSMTWVRQAPGKGLEWVSSIVPSGGHTQYADSVKGRFTISRDNSKNTLYLQMNSLRAEDTAVYYCAKPLDWGLFDLWGRGTLVTVSS VL: not shown | 4.8 | 0.2 | 0.525 |
| hu8E2-TS-140 (antibody, V domains shown) VH: EVQLLESGGGLVQPGGSLRLSCAASGFTFSWYSMTWVRQAPGKGLEWVSSIVPSGGHTQYADSVKGRFTISRDNSKNTLYLQMNSLRAEDTAVYYCAKPNDWGLFDLWGRGTLVTVSS VL: not shown | 1.5 | 0.42 | 0.471 |
| hu8E2-TS-214 (antibody, V domains shown) VH: EVQLLESGGGLVQPGGSLRLSCAASGFTFSWYSMTWVRQAPGKGLEWVSSIVPSGGHTQYADSVKGRFTISRDNSKNTLYLQMNSLRAEDTAVYYCAKGPGWGSFWFWGRGTLVTVSS VL: not shown | 1.6 | 0.31 | 1.11 |
| hu8E2-TS-215 (antibody, V domains shown) VH: EVQLLESGGGLVQPGGSLRLSCAASGFTFSWYSMTWVRQAPGKGLEWVSSIVPSGGHTQYADSVKGRFTISRDNSKNTLYLQMNSLRAEDTAVYYCAKGPGWGSFWQWGRGTLVTVSS VL: not shown | 1.5 | 0.34 | 1.85 |
| hu8E2-TS-307 (antibody, V domains shown) VH: EVQLLESGGGLVQPGGSLRLSCAASGFTFSWYSMTWVRQAPGKGLEWVSSIVPSGGHTQYADSVKGRFTISRDNSKNTLYLQMNSLRAEDTAVYYCAKGPGWGSFDLWGRGTLVTVSS VL: DIQMTQSPSSLSASVGDRVTITCQASQDVSMYVEWYQQKPGKAPKLLIYDASNLQTGVPSRFSGSGSGTDFTFTISSLQPEDIATYYCQQYDNLSPTFGPGTKVDIK | 1.9 | 0.25 | 1.32 |
| hu8E2-TS-303 (antibody, V domains shown) VH: EVQLLESGGGLVQPGGSLRLSCAASGFTFSWYSMTWVRQAPGKGLEWVSSIVPSGGHTQYADSVKGRFTISRDNSKNTLYLQMNSLRAEDTAVYYCAKGPGWGSFDLWGRGTLVTVSS VL: DIQMTQSPSSLSASVGDRVTITCQASQDVDYWVEWYQQKPGKAPKLLIYDASNLQTGVPSRFSGSGSGTDFTFTISSLQPEDIATYYCQQYDNLSPTFGPGTKVDIK | 1.4 | 0.35 | 4.09 |
| hu8E2-TS-222 (antibody, V domains shown) VH: EVQLLESGGGLVQPGGSLRLSCAASGFTFSWYSMTWVRQAPGKGLEWVSSIVPSGGHTQYADSVKGRFTISRDNSKNTLYLQMNSLRAEDTAVYYCAKGPGWGTFAYWGRGTLVTVSS VL: not shown | 3.3 | 0.16 | 1.91 |
| hu8E2-TS-305 (antibody, V domains shown) VH: EVQLLESGGGLVQPGGSLRLSCAASGFTFSWYSMTWVRQAPGKGLEWVSSIVPSGGHTQYADSVKGRFTISRDNSKNTLYLQMNSLRAEDTAVYYCAKGPGWGSFDLWGRGTLVTVSS VL: DIQMTQSPSSLSASVGDRVTITCQASQDVGIYVEWYQQKPGKAPKLLIYDASNLQTGVPSRFSGSGSGTDFTFTISSLQPEDIATYYCQQYDNLSPTFGPGTKVDIK | 2.1 | 0.23 | 1.58 |
| hu8E2-TS-224 (antibody, V domains shown) VH: EVQLLESGGGLVQPGGSLRLSCAASGFTFSWYSMTWVRQAPGKGLEWVSSIVPSGGHTQYADSVKGRFTISRDNSKNTLYLQMNSLRAEDTAVYYCAKGPGWGSFWTWGRGTLVTVSS VL: not shown | 1.2 | 0.39 | 1.91 |
| hu8E2-TS-218 (antibody, V domains shown) VH: EVQLLESGGGLVQPGGSLRLSCAASGFTFSWYSMTWVRQAPGKGLEWVSSIVPSGGHTQYADSVKGRFTISRDNSKNTLYLQMNSLRAEDTAVYYCAKGPGWGSFWEWGRGTLVTVSS VL: not shown | 2.7 | 0.19 | 1.39 |
| hu8E2-TS-310 (antibody, V domains shown) VH: EVQLLESGGGLVQPGGSLRLSCAASGFTFSWYSMTWVRQAPGKGLEWVSSIVPSGGHTQYADSVKGRFTISRDNSKNTLYLQMNSLRAEDTAVYYCAKGPGWGSFDLWGRGTLVTVSS VL: DIQMTQSPSSLSASVGDRVTITCQASQDVAMYIEWYQQKPGKAPKLLIYDASNLQTGVPSRFSGSGSGTDFTFTISSLQPEDIATYYCQQYDNLSPTFGPGTKVDIK | 0.4 | 0.84 | 2.09 |
| hu8E2-TS-311 (antibody, V domains shown) VH: EVQLLESGGGLVQPGGSLRLSCAASGFTFSWYSMTWVRQAPGKGLEWVSSIVPSGGHTQYADSVKGRFTISRDNSKNTLYLQMNSLRAEDTAVYYCAKGPGWGSFDLWGRGTLVTVSS VL: DIQMTQSPSSLSASVGDRVTITCQASQDVSQYIEWYQQKPGKAPKLLIYDASNLQTGVPSRFSGSGSGTDFTFTISSLQPEDIATYYCQQYDNLSPTFGPGTKVDIK | 0.6 | 0.6 | 1.69 |
| hu8E2-TS-221 (antibody, V domains shown) VH: EVQLLESGGGLVQPGGSLRLSCAASGFTFSWYSMTWVRQAPGKGLEWVSSIVPSGGHTQYADSVKGRFTISRDNSKNTLYLQMNSLRAEDTAVYYCAKGPGWGSFWYWGRGTLVTVSS VL: not shown | 2.6 | 0.2 | 0.634 |
| hu8E2-TS-143 (antibody, V domains shown) VH: EVQLLESGGGLVQPGGSLRLSCAASGFTFSWYSMTWVRQAPGKGLEWVSSIVPSGGHTQYADSVKGRFTISRDNSKNTLYLQMNSLRAEDTAVYYCAKPHDWGLFDLWGRGTLVTVSS VL: not shown | 1.6 | 0.39 | 0.416 |
| hu8E2-TS-136 (antibody, V domains shown) VH: EVQLLESGGGLVQPGGSLRLSCAASGFTFSWYSMTWVRQAPGKGLEWVSSIVPSGGHTQYADSVKGRFTISRDNSKNTLYLQMNSLRAEDTAVYYCAKPLDWGRFDLWGRGTLVTVSS VL: not shown | 6 | 0.16 | 0.232 |
| hu8E2-TS-306 (antibody, V domains shown) VH: EVQLLESGGGLVQPGGSLRLSCAASGFTFSWYSMTWVRQAPGKGLEWVSSIVPSGGHTQYADSVKGRFTISRDNSKNTLYLQMNSLRAEDTAVYYCAKGPGWGSFDLWGRGTLVTVSS VL: DIQMTQSPSSLSASVGDRVTITCQASQDVDKYVEWYQQKPGKAPKLLIYDASNLQTGVPSRFSGSGSGTDFTFTISSLQPEDIATYYCQQYDNLSPTFGPGTKVDIK | 3.3 | 0.15 | 1.07 |
| hu8E2-TS-156 (antibody, V domains shown) VH: EVQLLESGGGLVQPGGSLRLSCAASGFTFSWYSMTWVRQAPGKGLEWVSSIVPSGGHTQYADSVKGRFTISRDNSKNTLYLQMNSLRAEDTAVYYCAKPEDWGRFDLWGRGTLVTVSS VL: not shown | 4.9 | 0.13 | 0.631 |
| hu8E2-TS-151 (antibody, V domains shown) VH: EVQLLESGGGLVQPGGSLRLSCAASGFTFSWYSMTWVRQAPGKGLEWVSSIVPSGGHTQYADSVKGRFTISRDNSKNTLYLQMNSLRAEDTAVYYCAKPHDWGRFDLWGRGTLVTVSS VL: not shown | 2.4 | 0.26 | 0.242 |

Reference: US20160031999A1 (CSL, published 2016)
